# Measurements taken from the domain aggregation screens of Martell et al. (2025).
# Assay: soluble fraction after stress (log2 fold change); higher = more stays soluble; pooled small domains, quantitative proteomics
# Details: stress: 75 degC
# 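Note: 20 min heating vs room temperature control held 20 min.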
row,Sequence,soluble fraction (log2)
1,HMLLSFYGTYGNVKLTGKELEDLQKEFPFDYQARIDRLSAYMESSGRKYHSHFATIRSWAQDDAKKN,-2
2,HMLLSYDIAEYIEKYIHEHGLQPGDRLPTERELAAQLDITRVSVRQGYKRLLDQGVIRSENGYYVNPPR,-1.68
3,HMLLTDGLERRIDGDKNLHIRISLPMLVKGQIKLAKSGNNESTVKGIFKIESYPGSHPRDVVTEIIEG,-0.236
4,HMLLTHPKRVFTYELIMELVWNEDYTFYSKKAVSNHMSNLRKKLKVTPDALDYIKNIVGVGYKFEA,-1.11
5,HMLMKKTITHEIELLEFLKQIFPQSSTNKLRKMLSNGRIKINSEIVHKAKYKLQENDTFELLDNPT,-2.61
6,HMLNEIMDTINKYISDKRNNKVAQNILSAALDELNSQIRVGLKDLNPHSIEEFKENVINSPYIEFEQG,-0.0112
7,HMLNEWIDYIDEHIKEELTAKNLATVFGYSERHFRNVFQIYYDIKLNDYIRRRKLYFAAQELKKG,-1.27
8,HMLNMSVYDKQLLRAVENNPFISQRELARELHWNVDRVKYYMKKWKDKGGLRHVGSSHKGYWEVLVRIEEK,-0.891
9,HMLNNVDIHKLSEDLLLYKIKIDIKLKNIEDAISTIDYFSNKFPNSDLMPYVIYEKKLIDNI,-2.59
10,HMLNPLLLPFVEAEDFQVKLEILAAMEGKVGEEDLDILYEALDLPKMTGNIEEQIHSIKQYIEMRK,-1.18
11,HMLNPVEKLLLLSQLYIGRLKGSFVVKEKHHKSTILGEVRELSPEEITLKTDEGYRLIRVDDILTIQL,-4.44
12,HMLNSLDATQRLKLNKDGVVVFNFGKYVDQSVIDIFKKEKGYYNWMMSKDFSQQVKNIITKIYQEEIIG,-1.08
13,HMLNTLGADIRALRKARGLTLAELAQTLGRSVGWLSQVERDMSEPGINDLRDLARALDVSISSLFG,-1.8
14,HMLNWINSDVLERFNSLTKEKQKAIVADTETRLNGLSQARFKVAKSSSNERLIAEFAIEINEAIMRAAAL,-2.11
15,HMLPADETEARVLNVLGSEPLHVDEIRNQADLPIEKISATLAMMELKGMVRQVGGMNYVAMR,0.0378
16,HMLPANGEAIYHYLASGAIKGVGPVTAQRIVDKFGEDTFDVLENNPLWLAEIKGITRKTAENIGAAFAAQF,0.631
17,HMLPDAESFSYEVPYTKGDGGTYNYEGKIKAQNADAARDEIIRQAQVYFQMNPQFTPDYPSTTITSLD,0.14
18,HMLPDDDMLLNILTKLLIDKQFVINSHEIFDFIIKRANRSYEEMFILVNKLDQLSLEKKRQLTIPLIKEI,-0.881
19,HMLPDLQESIDELLNIVDQRLNTSFEELVSGVNTTEKAIAFFLALLETIKWGFIKAEQTNNENKINIEKNY,-0.146
20,HMLPDPIYEAFMMASDLGIVVRNGPQYAYPDKETGEVLYKALGREKFLQLMKDNDGLLTSIETEIRSM,-1.61
21,HMLPKTVTLIDPVSGVAKTVTWVPALTLYSARRKAGLNRVPNTATIDRGGRELTGKRGSTLQPGDVVRW,-0.664
22,HMLPPLGDQELELLRFITESAPITVREAAESYGKDRGLARTTVLTMMERLRAKGYLTRSESGAANEYSP,-0.64
23,HMLPPVFLTIDANENVIVRKDGEPVQTLNKFELGAFARSQAENSAEQPVVLAADKSIKYEVVMEVI,0.192
24,HMLPRLVLSPGTEVLATVMGKYENGMSLVKISSHLFAMDLPSRVQVGDSLRMTFLHQDARPTFALA,-1.11
25,HMLPSDLDEGNRRRQLIEGAARLFRAKGFDGTSTRDIAAAAGMRSGSPFYHFDSKNALLYVVVQEGM,-0.0127
26,HMLPSWLPTDAWEAFLEARVAMKARPTERAKGLLLGELSKLVSQGQDARAVLEQSVQRGWRGLFPVK,-1.76

row,Sequence,soluble fraction (log2)
1,HMLPSWPGVSEFEVARLLRRGRARGSLTLDEVIDVVRDAELTSELIAGIRSSLRAEGIDFEET,-0.731
2,HMLPTLSLSVKIYKGEGDIALDLEEMVKAFDQLNFGSYPFSEKGVHGTNIVIRGNDKKHMEEAEDKVRSLT,-0.438
3,HMLPVDALFAQHPALIVTLGQTEKLKHGAAIRDWHFADGTYRVYSETGEFLLLGTVKGQILTTVKSFFE,-2.24
4,HMLQARKFTHIQGYEFEAEFLRTNGEFVELQDPQGRKKWFPISNFIQDDKDFIKEQAGNLSS,-0.309
5,HMLQEFTLELATAVVQEFRDQPGALINALHKLQETFGYVDEAAMPVLARLFNLSRAEVHGVASFYHDFRRS,-1.67
6,HMLQEHVLEIRHPSWNDAFRIIGHDGWRTQTGAHAAILSYDEEELNIKWDSWGYERFIRDEKGIFRLAA,-0.11
7,HMLQESDPEALRGIVKSVLVDHAAVAEEYRAGKQSVLQFLVGQGMKASKGAGNPGLIRDLMLEEL,-0.237
8,HMLQLSDAISRVESFLQGQNRNLAFSIDENTERSVVTVLDSDTGDVIRQIPSEELLVLAKRIQELQQD,-0.0104
9,HMLQMSDSSALEAILDEVLGSEMGQKALSDIEAGNMKAMGFIIGQSMKLSKGQANPQIINKLLQQRLK,-0.326
10,HMLQNLGFKPDLEIRHFPGIVLPDIHRSKKTISLLYTLLAGDIKKLPENEINYKDSKIISSYLWTLLRYH,0.103
11,HMLQSGSDYLIEQVRMYTATGQREYMDNYFEELNTTRRRENALEYFAEHYGDNDAFTLLKSAMTTSQN,-0.258
12,HMLQVRRILQLLADGYSKRQISQQTAVSRNTIDSYEDRFHLTGKSYQELLSMEDGELSGIVYP,-1.11
13,HMLQVSDENFVVELVQKVLLDNPSSVQEYKNGKESVLQFLIGQAMKASKGTANPQIVKEIMLKLL,-0.68
14,HMLQYSQEIEEAQKILQNLGLYKGEIDGINGVNTKSAIKEFQRKSGLIIDGILGPNTTSALSKGAESYITV,0.0721
15,HMLRISEEVWALVEKTLREDWSPEQVSGKLKASGISVSHERIYQHIYADKRVGGTLWTHLRR,-2.47
16,HMLRLLEIIAGNEVSKEINSQVIKYYKALKNKKIEEINNLTPSYNKLIISFDLKKKNFREMKKIIEDISIN,-0.136
17,HMLRPEEMIYHEMLDAILDRRLEPGMKLVEEDLAKTFGVSRARIRATFLQLAHDKLINLVPNRGAFVAEP,-2
18,HMLRRNQVQSQVIPRENGSYVVELQLRDDVDSILRLELTAATEAMARDLADRFRQDPEGVYTRLLSALY,-2.22
19,HMLRTEYLTVNYAKASEVAELVTASGFLSSRGSITVDERTNTLLLQDTATNIDEVRFMLEQLD,-0.366
20,HMLSADLLDKIQRIDSLEQQGKYAQAEKEARALLSDPSITPSERASVQNILSSIARKKAAQAQ,-0.064
21,HMLSAGTTEQRLAMLQYQWEKQSETYSALGPNNGVVTLGQIRNTMAKIAELAGFKDAAQFWMPVPMDYDV,-0.217
22,HMLSAPMPGTVLEVHVKEGQRVREGQTLVVMEAMKMEHRVQAPRAGVVTKLHYSEGDRVDVGAILVEIG,-1.34
23,HMLSAQEIPVEDIATRDFVLAEDVVSAKKVLLLPKGVDLSWFGSAKKRLVQRLKSEGVTHIRVFA,-2.06
24,HMLSFSEAERAVLSLLNRRPDLSAKALASELAVSARTVERYLQSLQQKGKLLRVGAKKGGYWQV,-0.842
25,HMLSGNLTADAHVHRGLQALSDGRNEDALVDFTKATEVQADFAEAWNKRATVNYLLGRYDAAVLDIQKTLE,0.257
26,HMLSLDDAAFERYDLTMREREVLLLLLNRLTYEEIAERLFISTNTVKTHVGNVYKKTGVSSRKELVSK,-1.26

row,Sequence,soluble fraction (log2)
1,HMLSLGQQIRNHVLSRIESGEWPEGSRIPSEAKLVELLGASRMTIHIALRDLSAEGVLLRKQGAGTFVAPR,-2.68
2,HMLSRKEVFTVSQKDIEKNPIGAADKFFDGHVGIHKLLVVDEEDRLRGLFTLSDIERINDEQ,0.179
3,HMLSRTYDSSGPDVKIRGTAQTVADKYMSLARDAQSSGDRVMAENYLQHAEHYNRIIAAAQAQ,0.34
4,HMLSSEQQQKLDSLSRKELEVAELVSHGATNKMIARTMNITERTVKAHLTAIFQKMNIPDRLSLAIFFRDL,-2.79
5,HMLSSNEIKEIFALFDKSNRGQVATSELGTLVRALNLNPTETEITDMQSKVDPKGQGSFTLDVLEKVVQD,0.394
6,HMLSVNREQVEQSLKQEWGFDYDKNLRAAQRAIDVYGDDDLKLLLNGPTGNDPAIVKLFARLGGEVTEE,0.132
7,HMLSYIELTVDNTSKASYIMTDKMKINNFKIIGNNTIRVYENKVSPQDISRTLSMNNVSIEALGRKS,-1.29
8,HMLSYNINEESKSSIMNVNVLKNNFASIDVEKLQNIIFTTFKKYNYYLNDFSSMNLLLHLLIIVDREL,0.418
9,HMLTEKEEEVMQILWDNGPLFVREILEFYPDPKPHYNTVSTVIRVLEEKNFASHKAYGNTYQYFP,0.315
10,HMLTLEDMTRINSIISPRIKKGQSLYHIAKNNGDELNISESTLRRLVMTGEMDAGIIDLPQAVK,-0.00636
11,HMLTLTNREKQVLVYIAKGHQVAQIAYELKLSGHTINGYIKTIYQKLHISSRAEAALLAQQYGL,-3.31
12,HMLTRQNFHGIKLPTIHEYIDLLNSRVNANIDKTNNWQSSVSHLRTYLNSHNINAVSKESINNYIDERLN,-1.4
13,HMLTRRQSEVLDFIRQFAESESMPPTLHEIAKGMGFSSDNAARDHVRALARKGAIDLVGGTSRGIRLR,-1.22
14,HMLTRSASREELDQLLKRLRQNLKQKNFFWPPDKEKSLVLYLENLFSKFPLNSSDIRFLHGIIRTLSEK,-0.188
15,HMLVGKSVIMKTNESSSGMIAGKVNYWENIDGKIYLGINGKLYDIADVDTVLDNDYYDKLVN,-0.516
16,HMLVKKYTEEETGRQAELSKQLAELSKAYYNTGNSMVDDAVFDKLRDELSSLEKESGFAYDISPNVS,-0.69
17,HMLVNNSTIETVIDFANVKFGMELTKDQVSEQLRNLSFSQTLKLINSMKADDNDAFSEIIDL,-0.593
18,HMLVSFGDHLKRYIYERAGIEEPFGEVPQEIYRDIAVDSFRETYTPKSMNPTSTKLPALVNNWLIQ,-0.843
19,HMLVSVSNYLGQNVDTVKSDLEALGLVVKLKEQQTDRESENGAVLEQSIEGGSKVSAGTPITLTYGK,0.945
20,HMLWTHIALPVRSLDDTMAFYDKYTTLENIHERQDPETNMRSVWLANPGDKTEQAARFVLVLI,-0.119
21,HMMTDAEKTFIFFSHLSSVEDHIAYGDKQFYMSLFWQHENKRELSSSQLYHLERLYNKYSMEEIEKKEEFS,-1.35
22,HMMTDEEFLRIAGYMKQRYGIDLGQKKVIMNGRLENHIKSGGWSSFHAFMNDLEKDSSGKLEKELVNLLTT,-0.239
23,HMMTLEESYKLLQVSHNASDIEITKAFKKLALLYHPDKNPSNIDWANKAMASINVAYNTIITHRFKEK,-1.38
24,HMNAAYDEELDFIFSLSEKGKWEEAEAEIGLLLQKHPEDATLQRIGEWVTTQKILLRQQAVEDRIRS,-0.375
25,HMNAEWMFDARKIPGLVMNYLRRIAVRAIEEKHYSPELVADLFGIDRTSIYDWLRKYRQQGEEALDTRKA,-1.28
